T1: pregnant rabbit liver membranes (Oryctolagus cuniculus, UniProt P19941)
T1 construct: pregnant rabbit liver membranes; from tissue; host or cells: liver membranes of pregnant rabbits
T1 sequence (P19941 19-638): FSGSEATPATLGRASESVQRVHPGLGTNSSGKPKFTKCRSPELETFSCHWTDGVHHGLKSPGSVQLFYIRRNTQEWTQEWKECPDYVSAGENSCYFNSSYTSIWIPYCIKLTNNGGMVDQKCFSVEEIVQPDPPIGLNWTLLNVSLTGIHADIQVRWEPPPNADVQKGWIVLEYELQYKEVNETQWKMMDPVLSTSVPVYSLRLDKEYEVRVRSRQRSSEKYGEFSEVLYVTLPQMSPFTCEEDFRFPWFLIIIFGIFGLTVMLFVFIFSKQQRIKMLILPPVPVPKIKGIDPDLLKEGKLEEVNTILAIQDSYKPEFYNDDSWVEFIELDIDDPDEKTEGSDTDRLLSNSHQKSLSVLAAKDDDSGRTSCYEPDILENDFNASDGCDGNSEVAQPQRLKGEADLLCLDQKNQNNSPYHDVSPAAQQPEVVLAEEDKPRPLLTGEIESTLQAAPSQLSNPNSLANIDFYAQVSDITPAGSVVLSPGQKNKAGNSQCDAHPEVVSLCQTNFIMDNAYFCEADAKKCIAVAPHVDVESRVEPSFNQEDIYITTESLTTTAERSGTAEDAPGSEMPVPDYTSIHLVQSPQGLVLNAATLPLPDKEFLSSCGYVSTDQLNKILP

T2: porcine liver membranes (Sus scrofa, UniProt P19756)
T2 construct: porcine liver membranes; from tissue; host or cells: porcine liver membranes
T2 sequence (P19756 19-638): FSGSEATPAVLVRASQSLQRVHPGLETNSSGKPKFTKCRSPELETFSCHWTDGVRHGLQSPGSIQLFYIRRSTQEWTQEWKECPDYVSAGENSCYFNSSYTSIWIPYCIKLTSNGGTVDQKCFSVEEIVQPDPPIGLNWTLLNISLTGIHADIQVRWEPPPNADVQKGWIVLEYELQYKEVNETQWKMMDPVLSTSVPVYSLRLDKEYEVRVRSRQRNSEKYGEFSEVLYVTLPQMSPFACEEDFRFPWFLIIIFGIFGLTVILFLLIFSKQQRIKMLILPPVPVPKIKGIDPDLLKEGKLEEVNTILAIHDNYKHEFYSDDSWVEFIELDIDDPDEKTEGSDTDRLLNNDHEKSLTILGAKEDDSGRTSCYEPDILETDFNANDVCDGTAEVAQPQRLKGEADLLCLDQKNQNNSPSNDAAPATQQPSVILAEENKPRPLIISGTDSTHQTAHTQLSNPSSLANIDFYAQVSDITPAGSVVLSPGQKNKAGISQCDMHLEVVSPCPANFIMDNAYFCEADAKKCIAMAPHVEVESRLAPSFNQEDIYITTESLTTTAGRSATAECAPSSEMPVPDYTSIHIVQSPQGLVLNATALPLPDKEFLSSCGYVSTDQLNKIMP

B1: pST Standard: pST standard of the hypox rat assay; footnote mentions pituitary derived pST standard (protein, UniProt P01248 27-216, looked up)
Somatotropin: FPAMPLSSLFANAVLRAQHLHQLAADTYKEFERAYIPEGQRYSIQNAQAAFCFSETIPAPTGKDEAQQRSDVELLRFSLLLIQSWLGPVQFLSRVFTNSLVFGTSDRVYEKLKDLEEGIQALMRELEDGSPRAGQILKQTYDKFDTNLRSDDALLKNYGLLSCFKKDLHKAETYLRVMKCRRFVESSCAF
B2: Dialyzed Zn-rpST: dialyzed zinc recombinant porcine somatotropin (protein, UniProt P01248 27-216, looked up)
Somatotropin: B1 Somatotropin
modifications: zinc form
notes: dialyzed zinc recombinant porcine somatotropin
B3: Non-derivatized Zn-rpST: zinc form of non-derivatized recombinant porcine somatotropin (protein, UniProt P01248 27-216, looked up)
Somatotropin: B1 Somatotropin
modifications: zinc form
notes: zinc form of non-derivatized recombinant porcine somatotropin
B4: non-derivatized rpST: unmodified recombinant porcine somatotropin produced in E. coli ATCC 53031 (protein, UniProt P01248 27-216, looked up)
Somatotropin: B1 Somatotropin
modifications: E. coli recombinant
B5: small-loop derivatized rpST: recombinant porcine somatotropin with small-loop disulfide reduced with 2-mercaptoethanol and sulfhydryls carbamidomethylated with iodoacetamide (Example 1) (protein, UniProt P01248 27-216, looked up)
Somatotropin: B1 Somatotropin
modifications: small-loop cysteines carbamidomethylated
B6: Small-loop derivatized Zn-RpST: zinc form of small-loop derivatized recombinant porcine somatotropin (protein, UniProt P01248 27-216, looked up)
Somatotropin: B1 Somatotropin
modifications: zinc form; small-loop cysteines carbamidomethylated
notes: zinc form of small-loop derivatized recombinant porcine somatotropin

Assays:
[1] = system: hypophysectomized (hypox) rats; assay: body weight gain in hypophysectomized (hypox) rats; assay type: in vivo, rat; conditions: for % Weight Gain Mean: hypox rats, 24 ug pST/day for 9 days, weight gain over a 10 day period; for % Relative Bioactivity: relative to the pituitary derived pST standard tested at similar concentration, 24 ug
Description: The relative bioactivity and biopotency of non-derivatized rpST and small-loop derivatized rpST prepared according to the method of Example 1 was determined by measuring the body weight gain in hypophysectomized (hypox) rats. Four (4) groups of 10 hypox rats per group received 24 μg pST/day of pST standard, dialyzed Zn-rpST, small-loop derivatized Zn-rpST, or non-derivatized Zn-rpSt for 9 days. Rats were monitored daily and their body weight gains recorded over a 10 day period. The weight gain was measured and the percent relative bioactivity calculated as a percent of standard.

[2] = biological target: T1, pregnant rabbit liver membranes; assay: pST binding assay using pregnant rabbit liver membranes and 125I-labelled rpST; conditions: calculated from the IC-50 data relative to the standard
Description: The bioactivity of non-derivatized rpST and small-loop derivatized rpST prepared according to the method of Example 1 was determined by pST binding assays using pregnant rabbit liver membranes and ^125 I-labelled rpST. A modified version of the assay disclosed in Tsushima et al., Radioreceptor Assay for Growth Hormone, J. Clin. Endocrinol. Metab., 37:334-337 (1973) was used: The rpST sample was incubated at 30° C. for 3.5 hours with 16,000 cpm ^125 I-rpST. The range of concentration used for the displacement curve of the rpST standard and small-loop derivatized rpST was between 0.38-200 ng/ml. Additional information for the pST binding assay are described in Tsushima et al., Radioreceptor Assay for Growth Hormone, J. Clin. Endocrinol. Metab., 37:334-337 (1973).

[3] = biological target: T2, porcine liver membranes; assay: binding activity in porcine liver membranes (homologous somatotropin radioreceptor assay); conditions: relative to unmodified (non-derivatized) rpST = 100%
Description: The bioactivity of non-derivatized rpST and small-loop derivatized rpST prepared according to the method of Example 1 was determined using binding activity in porcine liver membranes according to a modification of the method in Haro et al., Homologous Somatotropin Radio Receptor Assay Utilizing Recombinant Bovine Growth Hormone, Mol. Cell Endocrinol., 38:109-116 (1985).

[4] = solution stability, rpST monomer by Superose-12 size-exclusion chromatography; assay type: physicochemical; conditions: 8 mg/ml, carbonate buffer pH 9.8 or phosphate buffered saline pH 7.4, 37° C., 0.6-120 days; compared with non-derivatized rpST
Description: 8 mg/ml non-derivatized rpST and small-loop derivatized rpST (prepared with IA according to Example 1) solutions containing 0.5% sodium azide were prepared in either 46 mM carbonate buffer (pH 9.8) or phosphate buffered saline (pH 7.4). Aliquots of 1.25 ml were incubated in Eppendorf Microcentrifuge tubes for 0.6, 4.6, 8.8, 22 and 120 days at 37° C.
At the end of each incubation period the aliquots were removed and analyzed for rpST monomer using Superose-12 size-exclusion chromatography with a mobile phase of 46 mM carbonate buffer (pH 9.8).

[5] = stability in the wetted state, rpST monomer recovery; assay type: physicochemical; conditions: 5 mg wetted with Tris-HCl pH 7.4 or carbonate buffer pH 9.8, 14 days at 37° C.; compared with non-derivatized rpST
Description: Non-derivatized rpST and small-loop derivatized rpST (prepared with IA according to Example 1) containing 5 mg/ml were dialyzed against 0.46 mM carbonate buffer an lyophilized to produce dry rpST samples for further testing. Five mg of dry small-loop derivatized and non-derivatized rpST were wetted with 0.01 ml of 50 mM Tris-HCl, pH 7.4, 0.05% sodium azide or 46 mM carbonate buffer, pH 9.8, 0.05% sodium azide. The paste was allowed to incubate for 14 days at 37° C. At the end of this time, the rpST was diluted to a final concentration of about 1.8 mg/ml in 46 mM carbonate buffer, pH 9.8, sonicated in a Branisonic 220 sonicator for several minutes, and centrifuged at 15,000×G for 5 minutes. The supernatant was analyzed for monomer content by the chromatographic procedure described in Example 6.

Molecule	relative bioactivity ([1]; at equivalent dose when the ST was dissolved in 9.5 high pH buffer) [%]	% Weight Gain Mean [1] [%]	% Relative Bioactivity [1] [%]	percent activity [2]	activity [3] [%]	percentage of monomer recovered [4]	recovery of rpST monomer [5]
B1	51	23.1	55	–	–	–	–
B2	–	14.4	62	–	–	–	–
B3	–	17.1	74	–	–	–	–
B4	–	14.4	–	about 75%	100	–	–
B5	–	13.5	–	181%	125	higher percentage of monomer recovered	much greater
B6	–	13.5	58	–	–	–	–
